# Experiment: yeast display, Sf9 membrane polyspecificity reagent, FACS + sequencing; frameworks hold sequencing errors
# Summary of the method: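 Nanobodies from a synthetic yeast display library (Saccharomyces cerevisiae BJ5465), induced 36–48 hours with galactose, were stained 1 hour at 4 °C with 10% biotinylated, detergent-solubilized Sf9 membrane reagent, enriched on streptavidin microbeads, then FACS-sorted. Anti-HA (expression) and streptavidin (reagent binding) fluorescence set low and high (top ~1%) gates. Polyreactivity labels come from the gate of origin. Genes were colony-PCR amplified, MiSeq 2 × 250 sequenced and filtered by CDR length.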
row,Sequence,polyreactivity (PSR sort gate)
1,QVQLVESGRGLVQAGGSLRLSCAASGLTFVYYDMGWYRQAPGKERELVAAITYIGTSTYYADSVKGRFTISRDNAKNTVYLQMNSLKPEDTAVYYCAAPFPIRSGESWRTDLGYDYWGQGTQVTVSS,low polyreactivity
2,QVQLVESGRGLVQAGGSLRLSCAASGNTFNVNAMVWYRQEPGKERELVAAITRSGGITYYADSVKGRFTISRDNAKNTVYLQLNSMKPEDTAVYYCAVEGFGYAYYYFYEYDYWGQGTQVTVSS,high polyreactivity
3,QVQLVESGRGLVQAGGSLRLSCAASGRIFKRYTMGWYRPAPGKETELVAGITFSGGSTYYADSVKGRFTISRDNAKNTVYLQMNSLKREDTAVYYCAADDAYYTYQYDYWGQGTQVTVSS,low polyreactivity
4,QVQLVESGRGLVQAGGSLRLSCAASGRIFLANAMGWSRQAPGKERELVAAISLSGGRTYYADSVKGRFTISRDIAKNTVYLQMNSLKPEDTAFYYCAAEFYPIGYYGGYDYWGPGTQVTVSS,low polyreactivity
5,QVQLVESGRGLVQAGGSLRLSCAASGRIFLYYAMGWYRQAPGKEREFVAAITYIGGSTYYADSVKGRFTISRDNAKNTVYLQMNSLKPEDTAVYWGQGTQVTVSS,low polyreactivity
6,QVQLVESGRGLVQAGGSLRLSCAASGRIFRVNAMGWYRQAPGKERELVAAISWGGGSTYYADSVKGRFTISRDNAKNTVYLQMNSLKPEDTAVYYCATTLVKSQSRYYYWGQGTQVTVSS,high polyreactivity
7,QVQLVESGRGLVQAGGSLRLSCAASGRIFRVNAMGWYRQAPGKERELVAAISWGGGSTYYADSVKGRFTISRDNAKNTVYLQMNSLKREDTAVYYCATTLVKSQSRYYYWGQGTQVTVSS,high polyreactivity
8,QVQLVESGRGLVQAGGSLRLSCAASGRIFVYYAMGWYRQAPGKERELVATISSGGSTYYADSVKGRFTISRDNAKNTVYLQMNSLKPEDTAVYYCAADNVNRYLAYYYKGDYWGQGTQVTVSS,low polyreactivity
9,QVQLVESGRGLVQAGGSLRLSCAASGRTFRAYAMGWYRQAPGKERELVAAISSRGGSTYYADSVKGRFTISRDNAKNTVYFQMNSLKPEDTAVYYCNVDRYVRGLITFDYWGQGTQVTVSS,high polyreactivity
10,QVQLVESGRGLVQAGGSLRLSCAASGRTFSYYVMGWYRQAPGKERELVAAISDSGGSTYYADSVKGRFTISRDNAKNTVYLQMNSLKPEDTAVYYCATDSYWYRLREYNYWGQGTQVTVSS,high polyreactivity
11,QVQLVESGRGLVQAGGSLRLSCAASGRTIKYYAMGWYRQAPGKDRELVAVISWSGGSTYYADSVKGRFTISRDNAKNTVYLQMNSLKPEDTAVYYCNAYVYAYYAGYNYWGQGTQLTVSS,high polyreactivity
12,QVQLVESGRGLVQAGGSLRLSCAASGRTLAFNAMGWYRQAPGKERELVAVIRNGTSTNYADSVKGRFTISRDNAKNTVYLQMNSLKPEDTAVYYCNVPYYLPSYLSGYDYWGQGTQVTVSS,low polyreactivity
13,QVQLVESGRGLVQAGGSLRLSCAASGSIFEQNVMGWYRQAPGKERELVAAITRGGSTNYADSVKGRFTISRDNAKNTVYLQMNSLKPEDTAVYYCSKRRWLGPSTLGYWGQGNQVTVSS,low polyreactivity
14,QVQLVESGRGLVQAGGSLRLSCAASGSIFSSYAMGWYRQAPGKERELVAAITWSGGRTYYADSVKGRFTISRDNAKNTVYLQMNSLKPEDTAVYYCNAVYLAYGGDYWGQGTQVTVSS,high polyreactivity
15,QVQLVESGRGLVQAGGSLRLSCAASGSILRNYAMGWYRQAPGKERELVAAISKSGGTTYYADSVKGRFTISRDNAKNTVYLQMNSLKPEDTAVYYCAARPGYLYDYWGQGTQVTVSS,high polyreactivity
16,QVQLVESGRGLVQAGGSLRLSCAASGSILYSYAMGWYRQAPGKERELVAAISSSGGTNYAASVKGSFTISRDNAKNTVYLQMNSLKPEDTEVYYCNADVLDGGYDYWGQGTQVTVSS,low polyreactivity
17,QVQLVESGRGLVQAGGSLRLSCAASGSTFGGYAMGWNRPAPGKERELVAAISIEGGSTYYAESVKGRFTISRDNAKNTVYLQMNSLKPEDTAVYYCNADEYYYGYNYWGQATQVTVSS,low polyreactivity
18,QVQLVESGRGLVQAGGSLRLSCAASGSTFKRYVIGWYRQAPGKERELVAVINCSGGSTYADSVKGRYTISRDNAKNTVYLQMNSLKPEDTAVYYCAKYKYYRYWGQRTQVTVSS,high polyreactivity
19,QVQLVESGRGLVQAGGSLRLSCAASGSTINYKAMGWYRQAPGKERELVAAIDSGVSTNYADSVKGLFTISRDHAKNTVYLQMNSLKPEDTAVYYCNADPDYFDYWGQGTQVTVSS,low polyreactivity
20,QVQLVESGRGLVQAGGSLRLSCAASGSTLGVNAMGWYRQAPGKERELVAAISRSGTSTYYADSVKGRFTISRDNAKNTVYLQMNSLKPEDTAVYYCAAQYVIFGSRSRQFIEYEYWGQGTQVTVSS,high polyreactivity
21,QVQLVESGRGLVQAGGSLRLSCAASGTYGYYAMGWYRQAPGKQRELVAAISGSGGSTYYADSVKGRFTISRDNAKNTVYLQMNSLKPEDTAVYYCAKRRRYGGRWVSGDYWGQGTQVTVSS,high polyreactivity
22,QVQLVESGRGLVQAGGSLRLSGAASGITQDDYDMGWSRQAPGKQRELVAAITSGGSTNYAHSVKGRFTNSRDNATNTVYLQMNSLKPEDTAVYYCAADTARTRIFDYWGQGTQVTVSS,low polyreactivity

row,Sequence,polyreactivity (PSR sort gate)
1,QVQLVESGRGLVQAGGSLRLSSAASGSISLFLTMGWYRQAPGKERELVAAINYTDITKYADSVKGRFTISRDNAKNTVYLQMKSLKPDDTAVYYCARDEGYEYPLGRGGYWGQGTQVTVSS,low polyreactivity
2,QVQLVESGRGLVQAGGTLRLSCAASGFIFATNTMGWYRQAPGKERELVAASSTYYADSVKGRFTISRDNAKNTVYLQMNSLKPEDTAVYYCNADRDSYIGFVDWAGEYWGQGTQVTVSS,low polyreactivity
3,QVQLVESGRGLVQAGVSLRLSCAASGSIFDPNAMGWYRQAPGKERELVAAITSGGGSTYYADSVKGRFTISRDNAKNTVYLQMNSLKPEDTAVYYCNKVFVLQYKFVAWFDYWGQGTQVTVSS,low polyreactivity
4,QVQLVESGRGLVQEGGSLRLSCAPSGSTFTSYAMGWSRQAPGKERELVAAINYSGGSTNYADSVKGRFTLSRDNAMNTVYLQMNSLKPEDTAVYYFNVVRRSPGDYSYYYWGQGTQVTVSS,low polyreactivity
5,QVQLVESGVCLVQAGGSLLLSCAASRRIFRNAMGWYRHAPGKERELVAAISSGGTTNYADSVKGRFTISRDNAKNTVYLLMNSLKPEDTAVYYCAAAPSSYRYRYVVFTFGYWGQGTQVTVSS,high polyreactivity
6,QVQLVESGVCLVQAGRSLPLSCAASGFTFDSNAMGWSRQAPGNESELVAAISASRDSTYYADSVKGRFTISRDNAKNTVYLQMNSLKPEETAVYYCAADSSDWPYDYWGQCTQVTVSS,low polyreactivity
7,QVQLVESGVGFVQAGASLRLSSAASGSIFRINAMGWYRQAPGKVRELVAAITRSGGSTFYADSVKGRFTMSRDYAKNTVYFQMHSLTPEDTAVYFCAAVWYYSTVPARYEYWGQGTQVTVSS,low polyreactivity
8,QVQLVESGVGIVQAGGSLRISCAASGTNFLFYAMGWYRQAPGKERELVATISRGGSTYYADSVKGRFTISRDNAKNTVYFQMKSLKPEDTAVYYCAARATRVTIAPRYGYWGQGTQVTVSS,low polyreactivity
9,QVQLVESGVGIVQAGGSLRLSCAASGSIFKTNAMGWYRHAPGNERELVAAITGSGGSTYYADSVKGRFTISRDNAKNNVYLQMMSLKPEDTAVYYCAKRSYRPILRWSYDYWGQGTQVTVSS,low polyreactivity
10,QVQLVESGVGLLQAGGILRISCASSGITFAWYAMVRYRQAPGKERELVAAIDDRGGSTYYADSVKGRFTISRDNAKNTVYFQMNSLKPEDTAVFYCNADTPSYEPYRLDYWGHGTQVTVSS,low polyreactivity
11,QVQLVESGVGLLQAGGSLRLSCAAYGYTMGLYRQAPGKEREFVAAINQTGGSTSADSVKGRFTISRDNANNTVYLQLNSLKPEDTAVYYCAADISVYSDSHDVSINYRYDYWGLGTQVTVSS,low polyreactivity
12,QVQLVESGVGLVPAGGSLRLSCAASGSTFSANAMGWYRQAPGKERELVAAITYRGANTYYADSVKGRFTISRDNAKNTVYLQLNSLKPEDTAVYYCAAEYAYHHVGFGYWGQGTQVTVSS,low polyreactivity
13,QVQLVESGVGLVQAGGILRLSCAASGSIFAVNAMGWYRQAPGKERELFAAISKRGGSTYYADSVKGRFTISRDNAKNTVYLQMNSLKPEDTAVYYCAARILVTYHRDYYYWGLGTQVTVSS,high polyreactivity
14,QVQLVESGVGLVQAGGRLRLSCAASGSTFLRYAMGWYRPAPGKERELVAAISYSGGSTYYADSVKGRFTISRDNAKNTVYLQMNSLKPEDTAVYYCNAGVFANDNGGRRDQFTWEYEYWGQGTQVTVSS,low polyreactivity
15,QVQLVESGVGLVQAGGSHRLSCAASGPTFRYNTMGWYRQAPGKERELVASISSGDRTDYADSVKGRFTISRDNAKYTVYLQMNSLKPEDTAVYYCNNKWYSIYYYWGQGTQVTVSS,high polyreactivity
16,QVQLVESGVGLVQAGGSLRISCAASGFIFDWNAMGWYRQAPGKERELVAAISSGGSTHYADSVKGRFTISRDNAKNTVYLQMNSLKPEDTAVYYCAARFPQWRYSRRTGERFDYWGQGTQVTVSS,low polyreactivity
17,QVQLVESGVGLVQAGGSLRISCAASGFIFVTNVMGWYRQAPGKEREFVAAITARGGTTYYADSVKGRFTISRDNAKNTVYLQMNRLKPEDTAVYYCAAGYGVIKSLSHFYYWGQGTQVTVSS,low polyreactivity
18,QVQLVESGVGLVQAGGSLRISCAASGRILGYYAMGWYRQAPGKEREMVAGISYSAGRTYYADSVKGRFTISRDNAKNTVYLQMNSLKPEDTAVYYCAKALVRSGSTRGTTGYYYWGQGTQVTVSS,high polyreactivity
19,QVQLVESGVGLVQAGGSLRISCAASGSTFAAKSMGWYRQAPGKEREWVAVIRRGGSTTYADSVKGRFTISRDNAKNTVYLQMNSLKPEATAVYYCAASLYGKGDYWGQGTQVTVSS,high polyreactivity
20,QVQLVESGVGLVQAGGSLRLICAASGFILGQNAMGWYRQAPGKEREFVADISWSGDSTYYADSVKGRFTISRDNAKNTVYFQMNSLKPEDTAVYYCAADPYYNWGYYYWGQGTQVTVSS,low polyreactivity
21,QVQLVESGVGLVQAGGSLRLICAASGSIFGYNAMGWYRQAPGKERELVAAISRSGGRTYYADSVKGSFTISRDNAKNTVYLQMNSLKPEDTAVYYCAASRPGLRTPGQMGYWGQGTQVTVSS,high polyreactivity

# From the nanobody polyreactivity screen of Harvey et al. (2022)
